These results are taken from article PMC6490927.

The target of assay [1] is C30-His6 (short form of SafA made by internal translation of the safA mRNA) (Bacillus subtilis). The assay is described as follows: SEC; purified C30-His6 applied to a size exclusion column at 3.5 mg/ml; eluted as a main single sharp peak; mass by elution position.
Assay [2] shares this target. Put plainly: SDS-PAGE of the purified protein (species resistant to denaturation); purified C30 without Tgl or at time 0 of the cross-linking assays; 37°C, Tris-HCl 0.1 M, pH 8.0; 10% SDS-PAGE, Coomassie.
For assay [3] the target is unchanged. Put plainly: SEC-SAXS; SEC peak fractions of C30; synchrotron SEC-SAXS at BM29 ESRF with in-line HPLC; in the absence of Tgl.

With “C30-His6 (short form of SafA made by internal translation of the safA mRNA) (natural protein)”, the values for the stoichiometry N in assay [1], in assay [2] and in assay [3] were 6, 2 and 6, respectively.
